Experiments:
[1] = system: HeLa Kyoto; experiment: solubility in G1/S (NP-40 vs SDS abundance) (log2 ratio); higher = more soluble; details: cell cycle stage: G1/S
[2] = system: HeLa Kyoto; experiment: melting temperature (median over replicates), in situ; higher = more thermally stable
[3] = system: HeLa Kyoto; experiment: solubility change mitosis vs G1/S (difference of NP-40 vs SDS log2 ratios) (log2 ratio difference); higher = more soluble in mitosis
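Throughout, for melting temperature (median over replicates), in situ: HeLa Kyoto cells synchronized by double thymidine or nocodazole block, proteins quantified by TMT10plex mass spectrometry, three independent biological replicates.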
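Throughout, for solubility change mitosis vs G1/S (difference of NP-40 vs SDS log2 ratios): synchronized HeLa Kyoto cells (double thymidine block for G1/S, nocodazole release for mitosis), protein amounts in NP-40 versus SDS lysates quantified by mass spectrometry, three biological replicates.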
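Throughout, for solubility in G1/S (NP-40 vs SDS abundance): HeLa Kyoto cells arrested at G1/S by double thymidine block, proteins quantified by TMT10plex mass spectrometry in mild NP-40 versus SDS extracts, three biological replicates.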

Sequence	solubility in G1/S (log2) [1]	melting temperature ([2]; cell cycle stage: G1/S) [°C]	melting temperature ([2]; cell cycle stage: mitosis) [°C]	solubility change mitosis (log2) [3]
MGEQPIFSTRAHVFQIDPNTKKNWVPTSKHAVTVSYFYDSTRNVYRIISLDGSKAIINSTITPNMTFTKTSQKFGQWADSRANTVYGLGFSSEHHLSKFAEKFQEFKEAARLAKEKSQEKMELTSTPSQESAGGDLQSPLTPESINGTDDERTPDVTQNSEPRAEPTQNALPFSHSSAISKHWEAELATLKGNNAKLTAALLESTANVKQWKQQLAAYQEEAERLHKRVTELECVSSQANAVHTHKTELNQTIQELEETLKLKEEEIERLKQEIDNARELQEQRDSLTQKLQEVEIRNKDLEGQLSDLEQRLEKSQNEQEAFRNNLKTLLEILDGKIFELTELRDNLAKLLECS [HOMER1]	0.426	51	51.9	0.185
MGFLRRLIYRRRPMIYVESSEESSDEQPDEVESPTQSQDSTPAEEREDEGASAAQGQEPEADSQELVQPKTGCELGDGPDTKRVCLRNEEQMKLPAEGPEPEADSQEQVHPKTGCERGDGPDVQELGLPNPEEVKTPEEDEGQSQP [PAGE1]	-0.617	53.3	51.6	0.603
MGNLFGRKKQSRVTEQDKAILQLKQQRDKLRQYQKRIAQQLERERALARQLLRDGRKERAKLLLKKKRYQEQLLDRTENQISSLEAMVQSIEFTQIEMKVMEGLQFGNECLNKMHQVMSIEEVERILDETQEAVEYQRQIDELLAGSFTQEDEDAILEELSAITQEQIELPEVPSEPLPEKIPENVPVKARPRQAELVAAS [CHMP6]	0.453		52.2	0.149
MGNTLTCCVSPNASPKLGRRAGSAELYCASDIYEAVSGDAVAVAPAVVEPAELDFGEGEGHHLQHISDREMPEDLALESNPSDHPRASTIFLSKSQTDVREKRKSNHLNHVSPGQLTKKYSSCSTIFLDDSTVSQPNLRTTVKCVTLAIYYHIKNRDANRSLDIFDERSHPLTREKVPEEYFKHDPEHKFIYRFVRTLFSAAQLTAECAIVTLVYLERLLTYAEIDICPTNWKRIVLGAILLASKVWDDQAVWNVDYCQILKDITVEDMNEMERHFLELLQFNINVPASVYAKYYFDLRSLADDNNLNFLFAPLSKERAQNLEAISRLCEDKDLCRAAMRRSFSADNFIGIQRSKAILS [CCNYL1]	-0.167	48.9	49.2	-0.0896
MGPRARPALLLLMLLQTAVLQGRLLRSHSLHYLFMGASEQDLGLSLFEALGYVDDQLFVFYDHESRRVEPRTPWVSSRISSQMWLQLSQSLKGWDHMFTVDFWTIMENHNHSKESHTLQVILGCEMQEDNSTEGYWKYGYDGQDHLEFCPDTLDWRAAEPRAWPTKLEWERHKIRARQNRAYLERDCPAQLQQLLELGRGVLDQQVPPLVKVTHHVTSSVTTLRCRALNYYPQNITMKWLKDKQPMDAKEFEPKDVLPNGDGTYQGWITLAVPPGEEQRYTCQVEHPGLDQPLIVIWEPSPSGTLVIGVISGIAVFVVILFIGILFIILRKRQGSRGAMGHYVLAERE [HFE]	0.207	55.9	57.2	0.0716
MGQQVGRVGEAPGLQQPQPRGIRGSSAARPSGRRRDPAGRTTETGFNIFTQHDHFASCVEDGFEGDKTGGSSPEALHRPYGCDVEPQALNEAIRWSSKENLLGATESDPNLFVALYDFVASGDNTLSITKGEKLRVLGYNQNGEWSEVRSKNGQGWVPSNYITPVNSLEKHSWYHGPVSRSAAEYLLSSLINGSFLVRESESSPGQLSISLRYEGRVYHYRINTTADGKVYVTAESRFSTLAELVHHHSTVADGLVTTLHYPAPKCNKPTVYGVSPIHDKWEMERTDITMKHKLGGGQYGEVYVGVWKKYSLTVAVKTLKEDTMEVEEFLKEAAVMKEIKHPNLVQLLGVCTLEPPFYIVTEYMPYGNLLDYLRECNREEVTAVVLLYMATQISSAMEYLEKKNFIHRDLAARNCLVGENHVVKVADFGLSRLMTGDTYTAHAGAKFPIKWTAPESLAYNTFSIKSDVWAFGVLLWEIATYGMSPYPGIDLSQVYDLLEKGYRMEQPEGCPPKVYELMRACWKWSPADRPSFAETHQAFETMFHDSSISEEVAEELGRAASSSSVVPYLPRLPILPSKTRTLKKQVENKENIEGAQDATENSASSLAPGFIRGAQASSGSPALPRKQRDKSPSSLLEDAKETCFTRDRKGGFFSSFMKKRNAPTPPKRSSSFREMENQPHKKYELTGNFSSVASLQHADGFSFTPAQQEANLVPPKCYGGSFAQRNLCNDDGGGGGGSGTAGGGWSGITGFFTPRLIKKTLGLRAGKPTASDDTSKPFPRSNSTSSMSSGLPEQDRMAMTLPRNCQRSKLQLERTVSTSSQPEENVDRANDMLPKKSEESAAPSRERPKAKLLPRGATALPLRTPSGDLAITEKDPPGVGVAGVAAAPKGKEKNGGARLGMAGVPEDGEQPGWPSPAKAAPVLPTTHNHKVPVLISPTLKHTPADVQLIGTDSQGNKFKLLSEHQVTSSGDKDRPRRVKPKCAPPPPPVMRLLQHPSICSDPTEEPTALTAGQSTSETQEGGKKAALGAVPISGKAGRPVMPPPQVPLPTSSISPAKMANGTAGTKVALRKTKQAAEKISADKISKEALLECADLLSSALTEPVPNSQLVDTGHQLLDYCSGYVDCIPQTRNKFAFREAVSKLELSLQELQVSSAAAGVPGTNPVLNNLLSCVQEISDVVQR [ABL2]	0.0755	49.2	49.1	-0.139
MGREFGNLTRMRHVISYSLSPFEQRAYPHVFTKGIPNVLRRIRESFFRVVPQFVVFYLIYTWGTEEFERSKRKNPAAYENDK [UQCRQ]	-0.497	53.1	51.8	-0.186
MGSQALPPGPMQTLIFFDMEATGLPFSQPKVTELCLLAVHRCALESPPTSQGPPPTVPPPPRVVDKLSLCVAPGKACSPAASEITGLSTAVLAAHGRQCFDDNLANLLLAFLRRQPQPWCLVAHNGDRYDFPLLQAELAMLGLTSALDGAFCVDSITALKALERASSPSEHGPRKSYSLGSIYTRLYGQSPPDSHTAEGDVLALLSICQWRPQALLRWVDAHARPFGTIRPMYGVTASARTKPRPSAVTTTAHLATTRNTSPSLGESRGTKDLPPVKDPGALSREGLLAPLGLLAILTLAVATLYGLSLATPGE [TREX1]	-0.198	53.5	56.2	0.329
MGSTVPRSASVLLLLLLLRRAEQPCGAELTFELPDNAKQCFHEEVEQGVKFSLDYQVITGGHYDVDCYVEDPQGNTIYRETKKQYDSFTYRAEVKGVYQFCFSNEFSTFSHKTVYFDFQVGDEPPILPDMGNRVTALTQMESACVTIHEALKTVIDSQTHYRLREAQDRARAEDLNSRVSYWSVGETIALFVVSFSQVLLLKSFFTEKRPISRAVHS [TMED3]	-0.0742	53.4	53.4	-0.000936
MHQPPESTAAAAAAADISARKMAHPAMFPRRGSGSGSASALNAAGTGVGSNATSSEDFPPPSLLQPPPPAASSTSGPQPPPPQSLNLLSQAQLQAQPLAPGGTQMKKKSGFQITSVTPAQISASISSNNSIAEDTESYDDLDESHTEDLSSSEILDVSLSRATDLGEPERSSSEETLNNFQEAETPGAVSPNQPHLPQPHLPHLPQQNVVINGNAHPHHLHHHHQIHHGHHLQHGHHHPSHVAVASASITGGPPSSPVSRKLSTTGSSDSITPVAPTSAVSSSGSPASVMTNMRAPSTTGGIGINSVTGTSTVNNVNITAVGSFNPNVTSSMLGNVNISTSNIPSAAGVSVGPGVTSGVNVNILSGMGNGTISSSAAVSSVPNAAAGMTGGSVSSQQQQPTVNTSRFRVVKLDSSSEPFKKGRWTCTEFYEKENAVPATEGVLINKVVETVKQNPIEVTSERESTSGSSVSSSVSTLSHYTESVGSGEMGAPTVVVQQQQQQQQQQQQQPALQGVTLQQMDFGSTGPQSIPAVSIPQSISQSQISQVQLQSQELSYQQKQGLQPVPLQATMSAATGIQPSPVNVVGVTSALGQQPSISSLAQPQLPYSQAAPPVQTPLPGAPPPQQLQYGQQQPMVSTQMAPGHVKSVTQNPASEYVQQQPILQTAMSSGQPSSAGVGAGTTVIPVAQPQGIQLPVQPTAVPAQPAGASVQPVGQAPAAVSAVPTGSQIANIGQQANIPTAVQQPSTQVPPSVIQQGAPPSSQVVPPAQTGIIHQGVQTSAPSLPQQLVIASQSSLLTVPPQPQGVEPVAQGIVSQQLPAVSSLPSASSISVTSQVSSTGPSGMPSAPTNLVPPQNIAQTPATQNGNLVQSVSQPPLIATNTNLPLAQQIPLSSTQFSAQSLAQAIGSQIEDARRAAEPSLVGLPQTISGDSGGMSAVSDGSSSSLAASASLFPLKVLPLTTPLVDGEDESSSGASVVAIDNKIEQAMDLVKSHLMYAVREEVEVLKEQIKELIEKNSQLEQENNLLKTLASPEQLAQFQAQLQTGSPPATTQPQGTTQPPAQPASQGSGPTA [TSC22D1]	-0.382	54.4	53.1	-0.0765
MITKTHKVDLGLPEKKKKKKVVKEPETRYSVLNNDDYFADVSPLRATSPSKSVAHGQAPEMPLVKKKKKKKKGVSTLCEEHVEPETTLPARRTEKSPSLRKQVFGHLEFLSGEKKNKKSPLAMSHASGVKTSPDPRQGEEETRVGKKLKKHKKEKKGAQDPTAFSVQDPWFCEAREARDVGDTCSVGKKDEEQAALGQKRKRKSPREHNGKVKKKKKIHQEGDALPGHSKPSRSMESSPRKGSKKKPVKVEAPEYIPISDDPKASAKKKMKSKKKVEQPVIEEPALKRKKKKKRKESGVAGDPWKEETDTDLEVVLEKKGNMDEAHIDQVRRKALQEEIDRESGKTEASETRKWTGTQFGQWDTAGFENEDQKLKFLRLMGGFKNLSPSFSRPASTIARPNMALGKKAADSLQQNLQRDYDRAMSWKYSRGAGLGFSTAPNKIFYIDRNASKSVKLED [KNOP1]	-1.76	54.2	52.1	1.57
MLFKLLQRQTYTCLSHRYGLYVCFLGVVVTIVSAFQFGEVVLEWSRDQYHVLFDSYRDNIAGKSFQNRLCLPMPIDVVYTWVNGTDLELLKELQQVREQMEEEQKAMREILGKNTTEPTKKSEKQLECLLTHCIKVPMLVLDPALPANITLKDLPSLYPSFHSASDIFNVAKPKNPSTNVSVVVFDSTKDVEDAHSGLLKGNSRQTVWRGYLTTDKEVPGLVLMQDLAFLSGFPPTFKETNQLKTKLPENLSSKVKLLQLYSEASVALLKLNNPKDFQELNKQTKKNMTIDGKELTISPAYLLWDLSAISQSKQDEDISASRFEDNEELRYSLRSIERHAPWVRNIFIVTNGQIPSWLNLDNPRVTIVTHQDVFRNLSHLPTFSSPAIESHIHRIEGLSQKFIYLNDDVMFGKDVWPDDFYSHSKGQKVYLTWPVPNCAEGCPGSWIKDGYCDKACNNSACDWDGGDCSGNSGGSRYIAGGGGTGSIGVGQPWQFGGGINSVSYCNQGCANSWLADKFCDQACNVLSCGFDAGDCGQDHFHELYKVILLPNQTHYIIPKGECLPYFSFAEVAKRGVEGAYSDNPIIRHASIANKWKTIHLIMHSGMNATTIHFNLTFQNTNDEEFKMQITVEVDTREGPKLNSTAQKGYENLVSPITLLPEAEILFEDIPKEKRFPKFKRHDVNSTRRAQEEVKIPLVNISLLPKDAQLSLNTLDLQLEHGDITLKGYNLSKSALLRSFLMNSQHAKIKNQAIITDETNDSLVAPQEKQVHKSILPNSLGVSERLQRLTFPAVSVKVNGHDQGQNPPLDLETTARFRVETHTQKTIGGNVTKEKPPSLIVPLESQMTKEKKITGKEKENSRMEENAENHIGVTEVLLGRKLQHYTDSYLGFLPWEKKKYFQDLLDEEESLKTQLAYFTDSKNTGRQLKDTFADSLRYVNKILNSKFGFTSRKVPAHMPHMIDRIVMQELQDMFPEEFDKTSFHKVRHSEDMQFAFSYFYYLMSAVQPLNISQVFDEVDTDQSGVLSDREIRTLATRIHELPLSLQDLTGLEHMLINCSKMLPADITQLNNIPPTQESYYDPNLPPVTKSLVTNCKPVTDKIHKAYKDKNKYRFEIMGEEEIAFKMIRTNVSHVVGQLDDIRKNPRKFVCLNDNIDHNHKDAQTVKAVLRDFYESMFPIPSQFELPREYRNRFLHMHELQEWRAYRDKLKFWTHCVLATLIMFTIFSFFAEQLIALKRKIFPRRRIHKEASPNRIRV [GNPTAB]	0.263	53.9	54.1	-0.00222
